Reference: PMC2947474 (Molecular Biology of the Cell, 2010)

How the values were obtained:
V5-tagged Vps53 = molecular target: T1, V5-tagged Vps53 (human, UniProt Q5VIR6 1-832); assay: sedimentation velocity on glycerol gradient + SEC
T1 sequence: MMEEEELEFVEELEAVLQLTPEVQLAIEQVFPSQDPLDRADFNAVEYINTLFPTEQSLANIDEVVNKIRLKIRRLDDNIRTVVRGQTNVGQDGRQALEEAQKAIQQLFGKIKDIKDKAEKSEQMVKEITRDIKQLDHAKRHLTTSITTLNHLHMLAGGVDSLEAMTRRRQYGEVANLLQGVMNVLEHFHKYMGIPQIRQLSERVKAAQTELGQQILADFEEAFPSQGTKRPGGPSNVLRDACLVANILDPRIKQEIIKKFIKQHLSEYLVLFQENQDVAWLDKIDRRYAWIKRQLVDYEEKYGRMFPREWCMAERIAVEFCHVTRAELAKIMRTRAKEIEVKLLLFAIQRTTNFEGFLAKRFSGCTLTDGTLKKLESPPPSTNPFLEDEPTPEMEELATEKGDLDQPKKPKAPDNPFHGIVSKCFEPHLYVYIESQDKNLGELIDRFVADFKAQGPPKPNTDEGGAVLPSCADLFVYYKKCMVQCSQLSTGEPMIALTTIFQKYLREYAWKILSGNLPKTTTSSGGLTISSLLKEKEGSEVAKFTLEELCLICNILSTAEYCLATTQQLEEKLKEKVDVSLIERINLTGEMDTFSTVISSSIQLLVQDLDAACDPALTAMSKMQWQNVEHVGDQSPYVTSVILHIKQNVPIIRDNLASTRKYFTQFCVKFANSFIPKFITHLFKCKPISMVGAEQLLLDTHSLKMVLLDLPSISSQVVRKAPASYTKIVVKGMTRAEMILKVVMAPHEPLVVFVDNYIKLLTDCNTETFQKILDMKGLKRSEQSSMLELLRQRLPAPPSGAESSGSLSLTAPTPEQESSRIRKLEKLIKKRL

V5-tagged Vps54 = molecular target: T2, V5-tagged Vps54 (human, UniProt Q9P1Q0 1-977); assay: sedimentation velocity on glycerol gradient + SEC
T2 sequence: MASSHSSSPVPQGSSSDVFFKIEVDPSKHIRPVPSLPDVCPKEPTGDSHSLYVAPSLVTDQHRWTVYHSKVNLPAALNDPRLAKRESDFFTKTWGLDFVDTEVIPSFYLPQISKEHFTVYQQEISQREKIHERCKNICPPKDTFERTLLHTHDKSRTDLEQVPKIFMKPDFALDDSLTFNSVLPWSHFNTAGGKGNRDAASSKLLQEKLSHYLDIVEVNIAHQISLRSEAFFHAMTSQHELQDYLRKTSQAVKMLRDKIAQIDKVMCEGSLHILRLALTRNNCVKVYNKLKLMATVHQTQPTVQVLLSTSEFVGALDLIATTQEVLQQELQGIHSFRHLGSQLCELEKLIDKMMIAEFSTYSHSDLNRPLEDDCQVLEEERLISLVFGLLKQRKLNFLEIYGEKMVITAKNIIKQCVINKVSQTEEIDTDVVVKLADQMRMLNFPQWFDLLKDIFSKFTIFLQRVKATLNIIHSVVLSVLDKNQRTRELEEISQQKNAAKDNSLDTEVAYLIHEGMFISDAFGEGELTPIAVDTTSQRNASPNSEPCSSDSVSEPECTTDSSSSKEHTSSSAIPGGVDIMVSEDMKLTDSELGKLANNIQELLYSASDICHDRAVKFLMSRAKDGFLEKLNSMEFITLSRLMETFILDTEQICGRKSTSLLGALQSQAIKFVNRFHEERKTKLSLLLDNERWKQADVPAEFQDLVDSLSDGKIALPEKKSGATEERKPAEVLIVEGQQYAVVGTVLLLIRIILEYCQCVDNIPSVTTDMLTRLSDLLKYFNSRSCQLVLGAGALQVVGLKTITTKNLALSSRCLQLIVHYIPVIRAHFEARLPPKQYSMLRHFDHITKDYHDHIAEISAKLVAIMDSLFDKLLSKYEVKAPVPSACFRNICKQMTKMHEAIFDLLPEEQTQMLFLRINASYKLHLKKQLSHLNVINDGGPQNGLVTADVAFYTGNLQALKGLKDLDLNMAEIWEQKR

stoichiometry N (V5-tagged Vps53): 1
stoichiometry N (V5-tagged Vps54): 1
B1: V5-tagged human Ang2 (natural protein)
chain: MAAAAAAGPSPGSGPGDSPEGPEGEAPERRRKAHGMLKLYYGLSEGEAAGRPAGPDPLDPTDLNGAHFDPEVYLDKLRRECPLAQLMDSETDMVRQIRALDSDMQTLVYENYNKFISATDTIRKMKNDFRKMEDEMDRLATNMAVITDFSARISATLQDRHERITKLAGVHALLRKLQFLFELPSRLTKCVELGAYGQAVRYQGRAQAVLQQYQHLPSFRAIQDDCQVITARLAQQLRQRFREGGSGAPEQAECVELLLALGEPAEELCEEFLAHARGRLEKELRNLEAELGPSPPAPDVLEFTDHGGSGFVGGLCQVAAAYQELFAAQGPAGAEKLAAFARQLGSRYFALVERRLAQEQGGGDNSLLVRALDRFHRRLRAPGALLAAAGLADAATEIVERVARERLGHHLQGLRAAFLGCLTDVRQALAAPRVAGKEGPGLAELLANVASSILSHIKASLAAVHLFTAKEVSFSNKPYFRGEFCSQGVREGLIVGFVHSMCQTAQSFCDSPGEKGGATPPALLLLLSRLCLDYETATISYILTLTDEQFLVQDQFPVTPVSTLCAEARETARRLLTHYVKVQGLVISQMLRKSVETRDWLSTLEPRNVRAVMKRVVEDTTAIDVQVGLLYEEGVRKAQSSDSSKRTFSVYSSSRQQGRYAPSYTPSAPMDTNLLSNIQKLFSERIDVFSPVEFNKVSVLTGIIKISLKTLLECVRLRTFGRFGLQQVQVDCHFLQLYLWRFVADEELVHLLLDEVVASAALRCPDPVPMEPSVVEVICERG
